According to article PMC6426468 (Science Advances, 2019):

Legend:
GST–lamin A = target: T1, GST–lamin A (human, UniProt P02545 1-646); assay: pull-down
T1 sequence (looked up): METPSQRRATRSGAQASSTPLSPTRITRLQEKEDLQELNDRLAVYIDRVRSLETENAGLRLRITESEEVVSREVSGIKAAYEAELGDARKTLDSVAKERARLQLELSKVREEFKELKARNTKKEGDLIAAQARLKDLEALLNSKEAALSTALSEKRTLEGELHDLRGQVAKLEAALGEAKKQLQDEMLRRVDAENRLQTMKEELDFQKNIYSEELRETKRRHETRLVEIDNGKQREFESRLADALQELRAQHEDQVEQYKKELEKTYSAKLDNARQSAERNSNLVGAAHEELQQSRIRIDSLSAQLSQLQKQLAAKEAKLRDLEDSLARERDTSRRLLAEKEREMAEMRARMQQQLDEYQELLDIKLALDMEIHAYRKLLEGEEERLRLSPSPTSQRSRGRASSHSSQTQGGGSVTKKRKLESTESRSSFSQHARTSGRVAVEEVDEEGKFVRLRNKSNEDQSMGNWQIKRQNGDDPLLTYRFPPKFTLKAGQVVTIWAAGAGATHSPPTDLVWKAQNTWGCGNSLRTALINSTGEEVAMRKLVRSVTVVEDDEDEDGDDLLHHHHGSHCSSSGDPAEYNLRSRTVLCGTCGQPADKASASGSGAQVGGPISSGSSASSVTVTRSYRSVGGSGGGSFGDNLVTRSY

GST–prelamin A = target: T2, GST–prelamin A (human, UniProt P02545 1-664); assay: pull-down
T2 sequence (looked up): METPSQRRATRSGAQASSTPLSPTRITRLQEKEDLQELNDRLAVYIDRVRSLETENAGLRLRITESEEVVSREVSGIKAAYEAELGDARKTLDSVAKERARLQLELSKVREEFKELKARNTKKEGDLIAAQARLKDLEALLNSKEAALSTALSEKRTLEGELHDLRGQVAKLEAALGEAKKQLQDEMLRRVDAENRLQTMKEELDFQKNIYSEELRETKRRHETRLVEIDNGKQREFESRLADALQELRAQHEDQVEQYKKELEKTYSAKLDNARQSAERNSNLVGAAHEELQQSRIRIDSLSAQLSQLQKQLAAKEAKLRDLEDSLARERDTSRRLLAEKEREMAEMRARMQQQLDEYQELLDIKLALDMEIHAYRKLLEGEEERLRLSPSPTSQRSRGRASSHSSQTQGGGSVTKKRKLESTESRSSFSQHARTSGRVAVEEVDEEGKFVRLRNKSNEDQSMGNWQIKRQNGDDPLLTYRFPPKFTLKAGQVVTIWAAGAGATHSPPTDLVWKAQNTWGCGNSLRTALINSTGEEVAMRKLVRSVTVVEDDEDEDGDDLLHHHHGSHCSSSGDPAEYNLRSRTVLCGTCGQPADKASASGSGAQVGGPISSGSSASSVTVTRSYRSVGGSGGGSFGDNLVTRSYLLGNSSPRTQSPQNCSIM

B1: CK2β (in vitro pull-down) (natural protein)
chain: not shown
GST–lamin A
  binding result: binds
GST–prelamin A
  binding result: binds
